This is an account of results in paper PMC4858679, “PCNA is involved in the EndoQ-mediated DNA repair process in Thermococcales” (Scientific Reports, 2016).

Series [1] addresses T1, Endonuclease Q from Pyrococcus furiosus (Pyrococcus furiosus (endogenous in P. …, UniProt Q8U0N5 1-424)).
T1 sequence (looked up): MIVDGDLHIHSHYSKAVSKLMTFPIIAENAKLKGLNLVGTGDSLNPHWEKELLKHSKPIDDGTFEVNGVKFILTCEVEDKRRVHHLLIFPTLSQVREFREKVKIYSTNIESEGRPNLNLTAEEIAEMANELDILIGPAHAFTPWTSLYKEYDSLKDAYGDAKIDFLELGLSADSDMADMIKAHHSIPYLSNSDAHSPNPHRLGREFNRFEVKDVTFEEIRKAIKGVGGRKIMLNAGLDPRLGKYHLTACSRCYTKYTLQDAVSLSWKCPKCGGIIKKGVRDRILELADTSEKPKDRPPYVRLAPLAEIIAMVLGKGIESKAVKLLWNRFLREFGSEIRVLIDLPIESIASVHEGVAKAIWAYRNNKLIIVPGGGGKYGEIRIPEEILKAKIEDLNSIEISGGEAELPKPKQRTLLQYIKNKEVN
Put plainly: cell-based or functional assay.

Series [2] concerns the molecule itself. As to the kind of experiment: SEC; gel filtration of purified TkoPCNA1 proteins; 160 μM.
For series [3], the target named is T2, Endonuclease Q from Thermococcus kodakarensis, wild type (Thermococcus kodakarensis, UniProt Q5JI33 1-421).
T2 construct: Endonuclease Q (EndoQ), Thermococcus kodakarensis KOD1, locus TK0887, GenBank BAD85076; printed MW 48080.3; the C-terminal truncation removes residues 409-421, so the chain ends at 421; no tag is named; also called TkoEndoQ; TkoEndoQ^WT; source: E. coli, purified (as described previously)
T2 sequence (looked up): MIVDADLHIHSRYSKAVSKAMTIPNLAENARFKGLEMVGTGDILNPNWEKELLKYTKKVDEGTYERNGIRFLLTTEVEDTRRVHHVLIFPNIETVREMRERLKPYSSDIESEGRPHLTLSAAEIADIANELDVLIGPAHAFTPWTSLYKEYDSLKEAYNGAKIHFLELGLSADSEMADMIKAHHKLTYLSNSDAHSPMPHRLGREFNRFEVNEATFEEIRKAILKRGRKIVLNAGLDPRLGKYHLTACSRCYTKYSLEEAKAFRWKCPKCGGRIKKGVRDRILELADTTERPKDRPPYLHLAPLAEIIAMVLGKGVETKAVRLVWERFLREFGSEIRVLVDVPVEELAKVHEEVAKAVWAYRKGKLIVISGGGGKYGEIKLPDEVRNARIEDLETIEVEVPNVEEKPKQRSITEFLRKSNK
As to the kind of experiment: SPR; Biacore J; TkoPCNA1 immobilised on a CM5 chip, TkoEndoQ injected (12-800 nM, 120 s); 25 °C; 10 mM HEPES pH 7.4, 0.4 M NaCl, 0.005% Tween20; 1:1 reaction model; apparent KD. The settings on record: both partners purified. (In general: In SPR one partner is held on a chip, and binding of the other changes the refractive index at the surface.)

B1: Proliferating cell nuclear antigen from Pyrococcus furiosus (natural protein, UniProt O73947 1-249, looked up)
chain: MPFEIVFEGAKEFAQLIDTASKLIDEAAFKVTEDGISMRAMDPSRVVLIDLNLPSSIFSKYEVVEPETIGVNMDHLKKILKRGKAKDTLILKKGEENFLEITIQGTATRTFRVPLIDVEEMEVDLPELPFTAKVVVLGEVLKDAVKDASLVSDSIKFIARENEFIMKAEGETQEVEIKLTLEDEGLLDIEVQEETKSAYGVSYLSDMVKGLGKADEVTIKFGNEMPMQMEYYIRDEGRLTFLLAPRVEE
In the case of B1, the “stimulation of the endonuclease activity of purified PfuEndoQ on dI-containing DNA by purified PfuPCNA (0.18 M NaCl)” value in series [1] is 6 to 7 fold.

B2: Proliferating cell nuclear antigen 1 from Thermococcus kodakarensis, wild type (natural protein, UniProt Q5JF32 1-249, looked up)
chain: MPFEVVFDGAKEFADLIATASNLIDEAAFKFTEEGISMRAMDPSRVVLIDLNLPESIFSKYEVEEPETIGINMDQFKKILKRGKAKDTLILRKGDENFLEITFEGTAKRTFRLPLIDVEELELELPELPFTAKVVLLGEVLKEGIKDASLVSDAIKFIAKENEFTMKAEGETNEVEIRLTLEDEGLLDLEVEEETKSAYGIRYLSDMVKGIGKADEVILRFGNEMPLQMEYMIRDEGRLTFLLAPRVEE
notes: PCNA1 (DNA polymerase sliding clamp 1), Thermococcus kodakarensis, locus TK0535; printed MW 28239.4; also called TkoPCNA1; TkoPCNA1^WT; source: E. coli, purified (as described previously)
With B2, the binding result in series [2] is on record as “binds”. Also, the Kd in series [3] worked out at 0.055 µM.
